Assay results from patent EP4659811A1.

How the values were obtained:
[1] = target: VP1 pentamer of BKV genotype II (recombinant) (BK virus genotype II), P14996; test: ELISA, coated VP1 pentamer; settings: remark: other sources report otherwise
[2] = target: VP1 pentamer of BKV genotype IV (recombinant) (BK virus genotype IV), P14996; test: ELISA, coated VP1 pentamer; settings: remark: other sources report otherwise

Binder	EC50 [1] [µg/mL]	EC50 [2] [µg/mL]
antibody C4P7 (antibody, V domains shown) VH: EVQLLESGGGLVQPGGSLRLSCAASGFTFSSYAMSWVRQAPGKGLEWVSSLTGSGGSTYYRDSVKGRFTIFRDNSKKTLYMQMNSLRAEDTAVYYCAKEGAYSYDFWYFDLWGRGTLVTVSS VL: EIVLTQSPGTLSLSPGERATLSCRASQTVSGNYLAWYQQKPGQSPSLLIYGASSRATGIPDRFTGSGSGTDFTLTISRLEPADFAVYYCQQYGRPLTFGGGTKVEIK	5	–
antibody G7P3 (antibody, V domains shown) VH: EVQLVESGGGLVQPGGSLRLSCAASGFSFGSYSMNWVRQAPGKGLEWVSHISSGSSSIYYADSVKGRFTISRDSVKNSLYLQMNNLRAEDTAVYYCARGWTGYDAFDIWGQGTMVTVSS VL: DIQMTQSPSSLSASVGDRVTITCRASQVISNYLAWYQEKPGKVPKLLIYAASTLQSGVPSRFSGSGTGTDFTLTIRSLQPEDVATYYCQKYNNAPLTFGGGTKVEIK	0.04	–
antibody E8P5 (antibody, V domains shown) VH: EVQLVESGGGLVHPGGSLRLSCAASGFRFGTYSMNWVRQAPGKGLEWVSHISSGSSSIYYADSVKGRFTISRDSVKNSLYLQMNNLRAEDTAVYFCARGWTGYDAFDIWGQGTMVTVSS VL: DIQMTQSPSSLSASVGDRVTITCRASQVISNYLAWYQEKPGEVPKLLIYAASTLQSGVPSRFSGSGTGTDFTLTISSLQPEDVATYYCQKYNNAPLTFGGGTKVEIK	0.08	–
antibody E10P5 (antibody, V domains shown) VH: QVQLQESGPGLVKPSQTLSLTCSVSGGSISSGNYYWSWIRQPAGKGLEWIGRIYTSGNTNYNPSLKSRVTMSVDTSKNQFSLKLSSVTATDTAVYYCARVRRDGYNAFDYWGQGTLVTVSS VL: SYELTQPPSVSVSPGQTASIDCSGHNLGDKFTCWYQQKPGQSPVLVIYQDSKRPSGIPERFSGSNSGNTATLTISGTQAMDEADYYCQAWDSDTLYVFGTGTTVTVL	0.065	–
antibody C10P8 (antibody, V domains shown) VH: QVQLQESGPGLVKPSQTLSLTCTVSGGSISSGRYYWSWIRQPAGKGLEWIGRVYFSGSTNYNPSLKNRVTLSVDTSKNQFSLKLSSVIAADTAVYYCARAVRDYGDSYSFDYWGQGTLVTVSS VL: QSALTQPASVSGSPGQSITISCTGSSSDIGGYNYVSWYQVHPGKAPHLKIYDVVNRPSGVSNRFPGSKSGNTASLTISGLLADDEAYYYCCSYSIRGTPVFGGGTKLTVL	–	10
antibody B7P3 (antibody, V domains shown) VH: EVQLVESGGGVVQPGRSLRLSCAASGFTFSNFGMHWVRQPPGKGLEWVAVISYDGSDKFYADSVKGRFTISRDNFKNTLYVQMNSLRAEDTAVYYCAKDRVRTKYYYDHSGPFDYWGRGTLVTVSS VL: SYVLTQPPSVSVAPGQTARIACGGNNIGSKSVHWYQQRPGQAPVLVVYDDDDRPSGIPERFSGSNSGNTATLTISRVEAGDEADYFCQVWMTNSDRPVFGGGTKLTVL	5.5	–
